From patent publication US20250289866A1 (published 2025)

Target: T1, NDC80 (NDC80 CT antigen; peptide NDC80-330) peptide on HLA-A*02:01 (human)
T1 peptide: GLNEEIARV
Assay: multimer staining

binding result: recognises
B1: NDC80-330 specific TCR (TCR, V domains shown)
Valpha: EDQVTQSPEALRLQEGESSSLNCSYTVSGLRGLFWYRQDPGKGPEFLFTLYSAGEEKEKERLKATLTKKESFLHITAPKPEDSATYLCAVQAGSSASKIIFGSGTRLSIRP
Vbeta: DAGVTQSPTHLIKTRGQQVTLRCSPKSGHDTVSWYQQALGQGPQFIFQYYEEEERQRGNFPDRFSGHQFPNYSSELNVNALLLGDSALYLCASSLSGGIYEQYFGPGTRLTVT
